Experimental data reported in patent US9808503B2, “Allergen peptide fragments and use thereof for treatment of birch pollen allergies” (ANERGIS S.A., priority 2003, dated 2017).

Columns and labels:
[1] = tested on: bee venom (BV) hypersensitive patients; assay: Intradermal (ID) skin tests; assay type: in vivo, human; conditions: for immediate allergic reaction to intradermal injection: representative patient of peptide group (FIG. 5), 1 μg/ml each OPF, 0.01 μg/ml native PLA2
Protocol: Skin testing: ID tests with BV, PLA2 and peptides were performed as described in Müller et al., Allergy 48(14):37-46, 1993. Concentrations tested ranged from 10^−3 μg/ml to 1 μg/ml (10-fold dilution series). […] The 0.1 μg/ml concentration was defined as the end-point concentration (EPC), as higher concentrations of BV and PLA2 may induce non specific toxic reactions. See Müller et al., J. Allergy Clin. Immunol. 96:395-402, 1995.

[2] = tested on: IgE; assay: In vitro IgE binding, dot blot analysis; set-up: species or system human; conditions: 1 μg spotted; control and peptide groups; order: OPF90-134, then OPF1-60
Protocol: Immunoblotting and dot blot analysis: Anti-BV or -PLA2 immunoblots were processed as described in Kettner et al., Clin. Experiment. Allergy 29:394-401, 1999. For dot blot analysis, 1 μg of whole BV, PLA2, OPFs or human albumin was diluted ¼ in DMSO, spotted on PVDF membranes and dried for 30 min. at 37° C. After blocking in non-fat milk 5%, further steps were performed as described in Kettner et al., Clin. Experiment. Allergy 29:394-401 1999. Dot densities were analyzed by scanning densitometry using an Advanced American Biotechnology scanner, Fullerton, Calif.

| Substance | immediate allergic reaction to intradermal injection [1] | IgE binding to the peptide (order among the three OPFs) [2] | ID tests ([1]; day 0, all patients in OPF and control group) |
| --- | --- | --- | --- |
| OPF1-60: PLA2 fragment amino acid sequence (60 aa), N-terminal overlapping peptide fragment of Apis mellifera PLA2 (IIYPGTLWCGHGNKSSGPNELGRFKHTDACCRTHDMCPDVMSAGESKHGLTNTASHTRLS) | absence of immediate allergic reaction |  |  |
| OPF47-99: PLA2 fragment amino acid sequence (53 aa), internal overlapping peptide fragment of Apis mellifera PLA2 (KHGLTNTASHTRLSCDCDDKFYDCLKNSADTISSYFVGKMYFNLIDTKCYKLE) | absence of immediate allergic reaction | undetectable |  |
| OPF90-134: PLA2 fragment amino acid sequence (45 aa), C-terminal overlapping peptide fragment of Apis mellifera PLA2 (LIDTKCYKLEHPVTGCGERTEGRCLHYTVDKSKPKVYQWFDLRKY) | absence of immediate allergic reaction | higher level |  |
| phospholipase A2 [native PLA2, reference compound] | positive |  | positive |
